Measured values as given in US20090281023A9.

Assays:
[1] = target: PEG7-Octyl-Salmon Calcitonin, Diconjugate (salmon) (UniProt P01263)
[2] = target: salmon calcitonin (salmon) (UniProt P01263)
[3] = target: PEG7-Octyl-Salmon Calcitonin, Diconjugate (salmon) (UniProt P01263); remark: listed apart in the source
[4] = target: salmon calcitonin (salmon) (UniProt P01263); remark: listed apart in the source

% Remaining Following 0.5 U/mL Chymotrypsin Digest (60 min, non-formulated) [1] [% remaining] | % Remaining Following 0.5 U/mL Chymotrypsin Digest (60 min, non-formulated) [2] [% remaining] | % Remaining following 1 U/mL Trypsin Digest (180 min, non-formulated) [3] [% remaining] | % Remaining following 1 U/mL Trypsin Digest (180 min, non-formulated) [4] [% remaining] | Substance
6 | 5 | – | – | Chymotrypsin (enzyme)
– | – | 61 | 31 | Trypsin (enzyme)
